In the supplement of paper PMC9112550, “Optimization of the antimicrobial peptide Bac7 by deep mutational scanning” (BMC Biology, 2022):

Test system: Escherichia coli TOP10
Assay: shrunken log2 fold change of peptide-encoding DNA abundance (4.5 h post-induction vs induction); higher = less antimicrobial activity (less host growth inhibition)
Settings: time post-induction: 4.5 h; library: site-saturation at positions 5, 18, 19, 20
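Note: peptides expressed intracellularly from a pBAD plasmid library in pooled LB shake-flask culture, induced with 0.3% L-arabinose, DNA abundance read by NGS, three biological replicates, DESeq2 with apeglm shrinkage.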

Sequence	shrunken log2 fold change
RRIRRRPPRLPRPRPRPPTYPRP	0.0139
RRIRYRPPRLPRPRPRPVFMPRP	-0.484
RRIRMRPPRLPRPRPRPEKIPRP	0.856
RRIRPRPPRLPRPRPRPVSHPRP	0.208
RRIRNRPPRLPRPRPRPALPPRP	0.248
RRIRWRPPRLPRPRPRPRNQPRP	0.145
RRIRSRPPRLPRPRPRPKFEPRP	0.12
RRIRLRPPRLPRPRPRPYRDPRP	0.0076
RRIRRRPPRLPRPRPRPSFHPRP	-0.182
RRIRGRPPRLPRPRPRPIGMPRP	0.244
RRIRKRPPRLPRPRPRPHVCPRP	-0.00289
RRIRGRPPRLPRPRPRPVHTPRP	0.174
RRIRFRPPRLPRPRPRPLASPRP	-0.0784
RRIRMRPPRLPRPRPRPWLPPRP	-0.0332
RRIRERPPRLPRPRPRPLSGPRP	-0.135
RRIRLRPPRLPRPRPRPFPVPRP	0.11
RRIRCRPPRLPRPRPRPMWDPRP	-0.317
RRIRHRPPRLPRPRPRPYNWPRP	-0.928
RRIRFRPPRLPRPRPRPDSNPRP	-0.758
RRIRARPPRLPRPRPRPGACPRP	0.783
RRIRFRPPRLPRPRPRPKVSPRP	0.00612
RRIRCRPPRLPRPRPRPAYFPRP	-0.361
RRIRARPPRLPRPRPRPLHIPRP	-0.559
RRIRNRPPRLPRPRPRPNMCPRP	-0.0592

Sequence	shrunken log2 fold change
RRIRERPPRLPRPRPRPMLIPRP	-0.266
RRIRYRPPRLPRPRPRPHSQPRP	-0.71
RRIRCRPPRLPRPRPRPPEGPRP	0.926
RRIRKRPPRLPRPRPRPCACPRP	0.0293
RRIRMRPPRLPRPRPRPMQRPRP	0.556
RRIRERPPRLPRPRPRPGTYPRP	-0.478
RRIRGRPPRLPRPRPRPSVLPRP	0.389
RRIRTRPPRLPRPRPRPHPMPRP	-0.167
RRIRARPPRLPRPRPRPQGAPRP	0.191
RRIRERPPRLPRPRPRPCRDPRP	0.0284
RRIRWRPPRLPRPRPRPYKGPRP	-0.0487
RRIRIRPPRLPRPRPRPDGRPRP	-0.13
RRIRGRPPRLPRPRPRPRRLPRP	0.502
RRIRVRPPRLPRPRPRPMWVPRP	0.0736
RRIRLRPPRLPRPRPRPDTWPRP	0.0224
RRIRMRPPRLPRPRPRPDLSPRP	1.58
RRIRYRPPRLPRPRPRPGVMPRP	-0.55
RRIRWRPPRLPRPRPRPAMHPRP	0.341
RRIRERPPRLPRPRPRPPNQPRP	-0.118
RRIRVRPPRLPRPRPRPNFAPRP	0.104
RRIRLRPPRLPRPRPRPPQGPRP	1.27
RRIRHRPPRLPRPRPRPFDWPRP	-0.0238
RRIRCRPPRLPRPRPRPILLPRP	-1.03
RRIRQRPPRLPRPRPRPPWRPRP	0.619

Sequence	shrunken log2 fold change
RRIRWRPPRLPRPRPRPGGLPRP	0.403
RRIRVRPPRLPRPRPRPWKHPRP	-0.0202
RRIRNRPPRLPRPRPRPIMWPRP	0.137
RRIRWRPPRLPRPRPRPMFNPRP	-0.156
RRIRERPPRLPRPRPRPHQHPRP	-0.449
RRIRDRPPRLPRPRPRPIVWPRP	-0.0132
RRIRKRPPRLPRPRPRPNWTPRP	-0.129
RRIRVRPPRLPRPRPRPCHSPRP	-0.225
RRIRRRPPRLPRPRPRPMWPPRP	0.265
RRIRPRPPRLPRPRPRPTKYPRP	-0.344
RRIRQRPPRLPRPRPRPRGRPRP	0.256
RRIRLRPPRLPRPRPRPDKAPRP	0.0248
RRIRDRPPRLPRPRPRPSCFPRP	0.126
RRIRLRPPRLPRPRPRPQRGPRP	0.111
RRIRIRPPRLPRPRPRPNPWPRP	-0.119
RRIRLRPPRLPRPRPRPMLDPRP	0.014
RRIRSRPPRLPRPRPRPFNSPRP	-0.116
RRIRDRPPRLPRPRPRPVLRPRP	-0.0147
RRIRARPPRLPRPRPRPINKPRP	-0.311
RRIRDRPPRLPRPRPRPHAYPRP	-0.218
RRIRLRPPRLPRPRPRPIYTPRP	-0.377
RRIRNRPPRLPRPRPRPSALPRP	-0.213
RRIRFRPPRLPRPRPRPIHSPRP	-0.895
RRIRCRPPRLPRPRPRPHEYPRP	-0.253

Sequence	shrunken log2 fold change
RRIRTRPPRLPRPRPRPYHIPRP	-1.06
RRIRVRPPRLPRPRPRPCLNPRP	-0.193
RRIRWRPPRLPRPRPRPHVVPRP	0.0851
RRIRWRPPRLPRPRPRPYHMPRP	-0.591
RRIRARPPRLPRPRPRPLWDPRP	0.022
RRIRQRPPRLPRPRPRPTMSPRP	0.0272
RRIRQRPPRLPRPRPRPFPCPRP	0.0349
RRIRSRPPRLPRPRPRPEIYPRP	-0.295
RRIRQRPPRLPRPRPRPNFWPRP	-0.00668
RRIRERPPRLPRPRPRPFSVPRP	-0.213
RRIRQRPPRLPRPRPRPKLIPRP	-0.0954
RRIRSRPPRLPRPRPRPASWPRP	0.363
RRIRCRPPRLPRPRPRPFNHPRP	-0.427
RRIRCRPPRLPRPRPRPGMYPRP	-0.848
RRIRSRPPRLPRPRPRPYGDPRP	-0.115
RRIRQRPPRLPRPRPRPEGTPRP	0.231
RRIRVRPPRLPRPRPRPWGDPRP	0.148
RRIRDRPPRLPRPRPRPNQEPRP	-0.0564
RRIRVRPPRLPRPRPRPMGMPRP	0.0727
RRIRERPPRLPRPRPRPDPVPRP	0.181
RRIRTRPPRLPRPRPRPHIMPRP	-0.738
RRIRYRPPRLPRPRPRPKYQPRP	-0.213
RRIRTRPPRLPRPRPRPEYEPRP	-0.0445
RRIRDRPPRLPRPRPRPHIMPRP	-0.981

Sequence	shrunken log2 fold change
RRIRERPPRLPRPRPRPWNAPRP	0.0455
RRIRDRPPRLPRPRPRPTCKPRP	0.0657
RRIRCRPPRLPRPRPRPPLTPRP	0.578
RRIRMRPPRLPRPRPRPQICPRP	0.058
RRIRMRPPRLPRPRPRPVGIPRP	0.158
RRIRRRPPRLPRPRPRPVFAPRP	0.455
RRIRGRPPRLPRPRPRPALDPRP	1.4
RRIRNRPPRLPRPRPRPFYVPRP	-0.181
RRIRDRPPRLPRPRPRPLWIPRP	-0.421
RRIRGRPPRLPRPRPRPEQLPRP	0.443
RRIRHRPPRLPRPRPRPDKDPRP	-0.44
RRIRLRPPRLPRPRPRPLHTPRP	-0.289
RRIRARPPRLPRPRPRPSVQPRP	0.629
RRIRGRPPRLPRPRPRPKKRPRP	0.817
RRIRMRPPRLPRPRPRPCRDPRP	0.244
RRIRGRPPRLPRPRPRPLVFPRP	0.455
RRIRMRPPRLPRPRPRPNIMPRP	-0.466
RRIRFRPPRLPRPRPRPEHMPRP	0.0146
RRIRSRPPRLPRPRPRPNQNPRP	-0.274
RRIRNRPPRLPRPRPRPDHHPRP	0.109
RRIRPRPPRLPRPRPRPSSLPRP	0.0404
RRIRCRPPRLPRPRPRPVCPPRP	0.0356
RRIRSRPPRLPRPRPRPYAGPRP	0.0441
RRIRPRPPRLPRPRPRPQLYPRP	-0.0926
